Laboratory results reported in publication PMC9891822, “Cysteine Pathogenic Variants of PMM2 Are Sensitive to Environmental Stress with Loss of Structural Stability” (Oxidative Medicine and Cellular Longevity, 2023).

B1: Phosphomannomutase2 (PMM2) wild type (enzyme, human, UniProt O15305-1 1-246, looked up)
chain: MAAPGPALCLFDVDGTLTAPRQKITKEMDDFLQKLRQKIKIGVVGGSDFEKVQEQLGNDVVEKYDYVFPENGLVAYKDGKLLCRQNIQSHLGEALIQDLINYCLSYIAKIKLPKKRGTFIEFRNGMLNVSPIGRSCSQEERIEFYELDKKENIRQKFVADLRKEFAGKGLTFSIGGQISFDVFPDGWDKRYCLRHVENDGYKTIYFFGDKTMPGGNDHEIFTDPRTMGYSVTAPEDTRRICELLFS
notes: PMM2, human, open reading frame NM_000303, primers from the start codon to the stop codon; Cloned into pET28a(+) 'containing 6x His-tag'; also called PMM2-WT; WT; source: E. coli BL21 (DE3), purified (Ni-NTA, Superdex 75)
B2: PMM2 Cys9Tyr (C9Y) variant (enzyme, human, UniProt O15305-1 1-246, looked up)
chain: MAAPGPALYLFDVDGTLTAPRQKITKEMDDFLQKLRQKIKIGVVGGSDFEKVQEQLGNDVVEKYDYVFPENGLVAYKDGKLLCRQNIQSHLGEALIQDLINYCLSYIAKIKLPKKRGTFIEFRNGMLNVSPIGRSCSQEERIEFYELDKKENIRQKFVADLRKEFAGKGLTFSIGGQISFDVFPDGWDKRYCLRHVENDGYKTIYFFGDKTMPGGNDHEIFTDPRTMGYSVTAPEDTRRICELLFS
notes: PMM2, human, open reading frame NM_000303, with the pathogenic variant C9Y (c. G26A) found in patients; Cloned into pET28a(+) 'containing 6x His-tag'; also called PMM2-C9Y; source: E. coli BL21 (DE3), purified (Ni-NTA, Superdex 75)
B3: PMM2 Cys241Ser (C241S) variant (enzyme, human, UniProt O15305-1 1-246, looked up)
chain: MAAPGPALCLFDVDGTLTAPRQKITKEMDDFLQKLRQKIKIGVVGGSDFEKVQEQLGNDVVEKYDYVFPENGLVAYKDGKLLCRQNIQSHLGEALIQDLINYCLSYIAKIKLPKKRGTFIEFRNGMLNVSPIGRSCSQEERIEFYELDKKENIRQKFVADLRKEFAGKGLTFSIGGQISFDVFPDGWDKRYCLRHVENDGYKTIYFFGDKTMPGGNDHEIFTDPRTMGYSVTAPEDTRRISELLFS
notes: PMM2, human, open reading frame NM_000303, with the pathogenic variant C241S (c. G722C) found in patients; Cloned into pET28a(+) 'containing 6x His-tag'; also called PMM2-C241S; source: E. coli BL21 (DE3), purified (Ni-NTA, Superdex 75)

Target: the molecule itself
Assay: SEC; Superdex 75 10/300GL on an AKTA purifier; 100 uL of 0.2 mg/mL protein injected; 0.6 mL/min; 20 mM Na2HPO4, 150 mM NaCl, 1 mM EDTA; mass estimated from the elution volume

Stoichiometry N, 2:
B1
B2
B3
